B1: monoclonal antibody CD6 (whole IgG) (antibody, V domains shown)
VH: QVKLQESGGGLVQPKGSLKLSCAASGFTFNTYAMNWVRQAPGKGLEWVARIRSKSNNYATFYADSVKDRFTISRDDSQSMLYLQMHNLKTDDTAMYYCVRPSIYYYASGYLDVWGAGTTVTVSS
VL: QIVLSQSPAILSASPGEKVTMTCRTSSSVSYMHWYQQKPGSSPKPWIYATSNLASGVPFRFSGSGSGTSYSLTISRVEAEDAATYYCQQWNSNPPTFGGGTKLEIK
notes: copies: 2 + 2
B2: CD6 Fab (Fab, V domains shown)
VH: B1 VH
VL: B1 VL
B3: CD6 Fab2 (other)
VH: B1 VH
VL: B1 VL
notes: F(ab')2 fragment; copies: 2 + 2

Columns and labels:
[1] = target: recombinant CA/09 NA (neuraminidase of A/California/07/2009) (Influenza A virus A/California/07/2009 …, UniProt C3W5S3); test: BLI; details: both partners purified
[2] = target: NA (CA/09) as antigen of the ELISA of Supplementary Fig. 5 (Influenza A virus A/California/07/2009 …, UniProt C3W6G3, strain); test: ELISA
[3] = target: recombinant CA/09 NA, thrombin-cleaved (His-tag depleted) (influenza A virus A/California/07/2009 …, UniProt C3W5S3, N-linked glycans seen at Asn88, Asn146 and Asn235); test: crystal structure; details: both partners purified

| Binder | Kd [1] | binding result [2] | stoichiometry N [3] |
| --- | --- | --- | --- |
| B1 | ~95 nM | binds | – |
| B2 | – | binds | 4 Fabs per NA tetramer |
| B3 | – | binds | – |
